“And” between values parts separate entries of the source, which are not always exact repeats. Equal values may be shown once.
What was measured:
[1] = molecular target: the molecule itself; assay: SDS-PAGE and immunoblot; 25 μl of milk whey from infected udder quarters, run under reducing conditions; detected with immunoaffinity-purified antibodies raised to rS100A12 or rPTX3
[2] = molecular target: the molecule itself; assay: SEC; gel permeation chromatography of purified rtnPTX3 in solution; result not shown
[3] = molecular target: T1, human C1q (human, UniProt P02745 23-245; P02746 28-253; P02747 29-245); assay: ELISA; 500 ng human C1q coated on 96-well plates in PBS pH 7.4 with 1 mM CaCl2 and 1 mM MgCl2; rtnPTX3 (12.5 ng/well, two preparations) added in PBS-Tween 20, 1 h at 37°C; bound rtnPTX3 detected with rabbit antibody raised to rPTX3; conditions: both partners purified
T1 construct: Complement C1q subcomponent subunit A, human; Complement C1q subcomponent subunit B, human; Complement C1q subcomponent subunit C, human; also called C1q component of the human complement system; source: bought: Merck; copies: + +
T1 sequence (P02745 23-245, chain 1 of 3): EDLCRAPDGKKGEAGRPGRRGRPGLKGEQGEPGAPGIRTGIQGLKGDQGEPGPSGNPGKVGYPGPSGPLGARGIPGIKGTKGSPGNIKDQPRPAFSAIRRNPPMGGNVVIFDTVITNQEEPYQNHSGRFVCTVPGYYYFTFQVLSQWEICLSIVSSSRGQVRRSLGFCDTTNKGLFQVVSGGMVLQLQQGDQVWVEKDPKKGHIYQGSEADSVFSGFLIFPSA
T1 sequence (P02746 28-253, chain 2 of 3): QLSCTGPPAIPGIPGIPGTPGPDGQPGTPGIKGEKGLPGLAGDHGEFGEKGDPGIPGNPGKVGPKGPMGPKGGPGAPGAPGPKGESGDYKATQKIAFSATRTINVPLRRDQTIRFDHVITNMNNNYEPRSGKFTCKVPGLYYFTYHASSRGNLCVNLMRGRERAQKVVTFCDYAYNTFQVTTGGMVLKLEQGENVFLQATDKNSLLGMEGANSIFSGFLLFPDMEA
T1 sequence (P02747 29-245, chain 3 of 3): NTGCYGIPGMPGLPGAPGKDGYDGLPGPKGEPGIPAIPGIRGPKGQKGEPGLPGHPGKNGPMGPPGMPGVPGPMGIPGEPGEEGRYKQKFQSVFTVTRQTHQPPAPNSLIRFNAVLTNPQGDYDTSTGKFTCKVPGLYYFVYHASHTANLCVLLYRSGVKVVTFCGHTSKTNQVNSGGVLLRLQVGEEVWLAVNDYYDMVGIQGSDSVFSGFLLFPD

[4] = molecular target: the molecule itself; assay: SDS-PAGE and immunoblot; culture supernatant of transfected Trichoplusia ni cells, reducing conditions; results not shown

| binding result [3] | Binder | stoichiometry N [1] | stoichiometry N [2] | stoichiometry N [4] |
| --- | --- | --- | --- | --- |
|  | S100 calcium-binding protein A12 (S100A12), endogenous in bovine milk whey (natural protein, bovine (endogenous in milk whey), UniProt P79105 1-92, looked up, 92 amino acids, predicted size 10.7 kDa; also called calgranulin C; source: endogenous, milk whey from udder quarters infected with S. aureus) MTKLEDHLEGIINIFHQYSVRVGHFDTLNKRELKQLITKELPKTLQNTKDQPTIDKIFQDLDADKDGAVSFEEFVVLVSRVLKTAHIDIHKE | 2 and 3 |  |  |
| binds | Recombinant bovine PTX3 (rtnPTX3) produced in Trichoplusia ni insect cells (natural protein, UniProt Q0VCG9 18-382, looked up, predicted size of the mature protein 40.2 kDa; The vector pIEx5 supplies the signal peptide of adipokinetic hormone for secretion; A few vector-derived residues at the N-terminus cannot be excluded; Two bands of 43 and 45 kDa, possibly differing in glycosylation at N221; also called Pentraxin-3; source: Trichoplusia ni (High Five) insect cells, transiently transfected with pIEX5-PTX3, secreted …) ENSDDYELMYVNLDNEIDNGLHPTEDPTPCDCSRENSEWDKLFTMLENSQMREGMLLQATDVMLRGELQKLQAELGRLEGSLQKLCGPEAPSETRLARALDDLLQASRDAGRRLARLEDAGALRPQEEAGRALGAVLEELRRTRADLRAVQGWAASRWLPAGCETAILFPMRSKKIFASVHPVTPMKLETFSACIWVKATEVLNKTVLFSYGTKRNPYEIQLYLSYRSIMLVVGGEENRLVADAVISLGTWTHLCSTWDSKKGHMALWVNGDSVATAVDMATGHVVPEGGILQIGQEKNGCCVGGGFDETLAFSGRLTGFNIWEGVLSNEEIREAGGAESCHIRGNVVGWGVTEIQPHGGAQYVY |  | 10 | 2 |
|  | Pentraxin-3 (PTX3), endogenous in bovine milk whey (natural protein, bovine (endogenous in milk whey), UniProt Q0VCG9 18-382, looked up, Pentraxin-3 (PTX3), bovine, secreted into milk; predicted Mw of the mature protein 40.2 kDa; one potential N-linked glycosylation site (Asn221); source: endogenous, milk whey from udder quarters infected with S. aureus) ENSDDYELMYVNLDNEIDNGLHPTEDPTPCDCSRENSEWDKLFTMLENSQMREGMLLQATDVMLRGELQKLQAELGRLEGSLQKLCGPEAPSETRLARALDDLLQASRDAGRRLARLEDAGALRPQEEAGRALGAVLEELRRTRADLRAVQGWAASRWLPAGCETAILFPMRSKKIFASVHPVTPMKLETFSACIWVKATEVLNKTVLFSYGTKRNPYEIQLYLSYRSIMLVVGGEENRLVADAVISLGTWTHLCSTWDSKKGHMALWVNGDSVATAVDMATGHVVPEGGILQIGQEKNGCCVGGGFDETLAFSGRLTGFNIWEGVLSNEEIREAGGAESCHIRGNVVGWGVTEIQPHGGAQYVY | 2 |  |  |
